Experimental data from patent US7115576B2, “Water-soluble antibiotic comprising an amino sugar, in the form of a polysaccharide conjugate” (Fresenius Kabi Deutschland GmbH, priority 2001, dated 2006).

Columns and labels:
Water solubility = type: physicochemical
erythrocytes = experiment: Haemolysis comparison test (extinction of supernatant at 576 nm); type: cell-based, human; conditions: 37°C, 20 min
Protocol: Of this stock solution, three dilutions were produced in accordance with Table 2 and their haemolytic action also investigated.
Production of the erythrocyte suspension: freshly taken human blood was diluted with approximately 5 times the volume of sterile 0.9% NaCl solution (batch designation: 9055A64 produced by the company Braun Melsungen) and centrifuged for 5 minutes at a relative centrifugal acceleration of 2000. The supernatant solution was then drawn off and the sedimented erythrocytes treated twice more in the same way.
The erythrocytes thus washed were counted in a Neubauer counting chamber and—where necessary—diluted again with sterile 0.9% NaCl solution to a final concentration of approx. 5·10^8 erythrocytes per ml. This suspension is according to DIN standard usable at room temperature for up to 6 hours.
Haemolysis comparison test: 5 ml of the solution to be tested was mixed with 1 ml of the above erythrocyte suspension, transferred to a cleaned centrifuge tube and incubated in a water bath at 37±1° C. for 20 minutes. Centrifuging was then performed for 5 minutes at a relative centrifugal acceleration of 2000.
The extinction of the supernatant liquid was measured. 5 ml of the 0.9% NaCl solution and the 5% glucose solution, which were mixed with 1 ml of the erythrocyte suspension, also incubated at 37±1° C. for 20 minutes and then centrifuged as above, served as negative controls.
For the test for haemolysis, the extinctions of the respective supernatants were measured in a photometer against the negative controls at a wavelength of 576 nm using a cuvette 10 mm in thickness. Owing to the differing stainings of the solutions, the extinction was also measured for the purpose of comparing the solutions without erythrocyte suspension.

Compound | water solubility (Water solubility) | Extinction 576 nm (erythrocytes; amphotericin B 0.1 mg/ml in the test batch (0.12 mg/ml in the solution)) | Extinction 576 nm (erythrocytes; amphotericin B 0.2 mg/ml in the test batch (0.24 mg/ml in the solution)) | Extinction 576 nm (erythrocytes; amphotericin B 0.4 mg/ml in the test batch (0.48 mg/ml in the solution)) | Extinction 576 nm (erythrocytes; amphotericin B 0.83 mg/ml in the test batch (1.00 mg/ml stock solution))
Amphotericin B-HES Conjugate [Ampho HES] | > 0.1 g/5 ml H2O | 0.027 | 0.061 | 0.274*) | 2.452*)**)
C[C@@H]1[C@H](O)[C@@H](C)/C=C/C=C/C=C/C=C/C=C/C=C/C=C/[C@H](O[C@@H]2O[C@H](C)[C@@H](O)[C@H](N)[C@@H]2O)C[C@@H]2O[C@](O)(C[C@@H](O)C[C@@H](O)[C@H](O)CC[C@@H](O)C[C@@H](O)CC(=O)O[C@H]1C)C[C@H](O)[C@H]2C(=O)O [Amphotericin B, reference compound] | virtually insoluble in water |  |  |  | 
